In article doi:10.1101/2025.03.22.644726:

Assays:
HERC5 HECT domain [1] = molecular target: HERC5 HECT domain (UniProt Q9UII4); test: SAXS
HERC5 HECT domain [2] = molecular target: HERC5 HECT domain (UniProt Q9UII4); test: SEC

Chain of HERC5 HECT domain (Q9UII4 702-1024): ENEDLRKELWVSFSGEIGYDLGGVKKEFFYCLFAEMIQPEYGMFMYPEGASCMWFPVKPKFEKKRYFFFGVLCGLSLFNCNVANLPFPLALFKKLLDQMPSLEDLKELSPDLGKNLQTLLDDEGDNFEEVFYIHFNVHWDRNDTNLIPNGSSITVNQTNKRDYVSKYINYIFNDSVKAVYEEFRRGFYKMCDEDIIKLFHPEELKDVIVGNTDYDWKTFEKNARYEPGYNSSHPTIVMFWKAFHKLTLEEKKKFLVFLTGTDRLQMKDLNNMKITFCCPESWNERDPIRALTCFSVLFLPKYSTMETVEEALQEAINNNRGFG

**Q.** Which stoichiometry N (HERC5 HECT domain [1]) does the source give for “HERC5 HECT domain (from UniProt Q9UII4 702-1024) (domain or fragment)” here?
**A.** 3

**Q.** What about the stoichiometry N (HERC5 HECT domain [2]) of the same substance?
**A.** 3
